Each block holds one compound with its values, some of them ahead of it.
Columns and labels:
70S ribosome [1] = experiment: footprinting (RelE printing, ribosome titration); details: tRNAfMet, RelE toxin, 10 mM Tris-HCl pH 7.4, 60 mM NH4Cl, RelE assay also 6 mM beta-mercaptoethanol, 37 C 10 min, BLI temperature not stated
70S ribosome [2] = experiment: BLI; details: tRNAfMet (2-fold molar excess), 10 mM Tris-HCl pH 7.4, 60 mM NH4Cl, RelE assay also 6 mM beta-mercaptoethanol, 37 C 10 min, BLI temperature not stated
NudC = molecular target: T1, NudC (Escherichia coli, UniProt P32664); experiment: NAD-RNA de-capping in vitro, gel read-out, ppGpp titration; format: biochemical; details: read-out: inhibition constant
T1 construct: homodimer by known biology
T1 sequence (P32664 1-257): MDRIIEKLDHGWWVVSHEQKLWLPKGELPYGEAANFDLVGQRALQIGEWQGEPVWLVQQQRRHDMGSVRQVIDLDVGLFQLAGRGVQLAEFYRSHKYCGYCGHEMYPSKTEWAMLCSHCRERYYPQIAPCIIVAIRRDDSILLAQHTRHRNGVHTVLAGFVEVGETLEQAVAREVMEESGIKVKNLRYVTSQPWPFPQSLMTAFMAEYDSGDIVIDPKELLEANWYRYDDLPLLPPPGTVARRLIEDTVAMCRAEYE

[3] = 10 mM Mg(OAc)2, 5'-NAD (first A replaced by NAD, start codon NAD-UG)
[4] = 10 mM Mg(OAc)2, 5'-triphosphate

Compound: AUGAGCACAAAAAAGAAACCAUUAACACAAGAGCAGCUUGAGGACGCACGUCGCCUUAAAGCAAUUUAUG [NAD-cI(1-70) leaderless mRNA]
K half (70S ribosome [1]; [3]): 4.3 nM | Kd (70S ribosome [2]; [3]): 4.3 nM

Compound: AUGAGCACAAAAAAGAAACCAUUAACACAAGAGCAGCUUGAGGACGCACGUCGCCUUAAAGCAAUUUAUG [ppp-cI(1-70) leaderless mRNA]
K half (70S ribosome [1]; [4]): 3.8 nM | Kd (70S ribosome [2]; [4]): 3.5 nM

Ki (NudC): ~70000 nM
Compound: Nc1nc2c(ncn2[C@@H]2O[C@H](COP(=O)(O)OP(=O)(O)O)[C@@H](OP(=O)(O)OP(=O)(O)O)[C@H]2O)c(=O)[nH]1 [ppGpp]

Reference: article PMC11514452, “Stochastic nature and physiological implications of 5′-NAD RNA cap in bacteria” (Nucleic Acids Research, 2024)
